Laboratory results as given in PMC9900621, “5-Formyltetrahydrofolate promotes conformational remodeling in a methylenetetrahydrofolate reductase active site and inhibits its activity” (The Journal of Biological Chemistry, 2022).

Experiments:
[1] = target: T1, methylenetetrahydrofolate reductase (tMTHFR) (Thermus thermophilus, UniProt Q5SLG6, E18Q); assay: crystal structure ([…] Å, pH […]); assay type: binding
T1 construct: gene TTHA0327; recombinant, uncleavable C-terminal hexa-Histidine tag
T1 sequence (Q5SLG6 1-296 E18Q): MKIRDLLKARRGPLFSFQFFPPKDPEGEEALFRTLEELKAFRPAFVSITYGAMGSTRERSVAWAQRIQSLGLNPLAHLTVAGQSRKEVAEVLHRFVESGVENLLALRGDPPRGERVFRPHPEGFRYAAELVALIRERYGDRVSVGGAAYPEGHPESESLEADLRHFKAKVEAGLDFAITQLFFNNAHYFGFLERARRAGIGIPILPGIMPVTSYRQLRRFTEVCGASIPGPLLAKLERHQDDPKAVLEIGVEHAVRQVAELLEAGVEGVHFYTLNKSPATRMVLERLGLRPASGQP

[2] = target: the molecule itself; assay: crystal structure; tMTHFR cocrystallised with CHO-H4folate, FAD-replete; reservoir 0.1 M sodium acetate pH 4.5, 2.5 M NaCl, 0.2 M lithium sulfate, 1.2% myo-inositol, 4 °C; 1.45 Å
[3] = target: the molecule itself; assay: crystal structure; folate-free tMTHFR Glu18Gln, as purified, with 0.6 mM CH3-H4folate; reservoir 0.1 M Hepes pH 7.8, 1 M LiCl, 20% PEG 6000, 20 °C, hanging drop; 1.90 Å

Cc1cc2nc3c(=O)[nH]c(=O)nc-3n(C[C@H](O)[C@H](O)[C@H](O)COP(=O)(O)OP(=O)(O)OC[C@H]3O[C@@H](n4cnc5c(N)ncnc54)[C@H](O)[C@@H]3O)c2cc1C [FAD]
crystal structure (1.90 Å, pH 7.8) [1]: presence of a small-molecule was found in the active site near FAD

B1: Thermus thermophilus HB8 methylenetetrahydrofolate reductase (tMTHFR), wild type (enzyme)
chain: MKIRDLLKARRGPLFSFEFFPPKDPEGEEALFRTLEELKAFRPAFVSITYGAMGSTRERSVAWAQRIQSLGLNPLAHLTVAGQSRKEVAEVLHRFVESGVENLLALRGDPPRGERVFRPHPEGFRYAAELVALIRERYGDRVSVGGAAYPEGHPESESLEADLRHFKAKVEAGLDFAITQLFFNNAHYFGFLERARRAGIGIPILPGIMPVTSYRQLRRFTEVCGASIPGPLLAKLERHQDDPKAVLEIGVEHAVRQVAELLEAGVEGVHFYTLNKSPATRMVLERLGLRPASGQP
notes: Uncleavable hexa-histidine tag on the C-terminus; Crystallised FAD-replete, with or without CHO-H4folate; also called tMTHFR^wt; MTHFR^wt; not shown: His6, C-terminal, kept
binding result [2]: binds

B2: Thermus thermophilus HB8 methylenetetrahydrofolate reductase Glu18Gln mutant (enzyme)
chain: MKIRDLLKARRGPLFSFQFFPPKDPEGEEALFRTLEELKAFRPAFVSITYGAMGSTRERSVAWAQRIQSLGLNPLAHLTVAGQSRKEVAEVLHRFVESGVENLLALRGDPPRGERVFRPHPEGFRYAAELVALIRERYGDRVSVGGAAYPEGHPESESLEADLRHFKAKVEAGLDFAITQLFFNNAHYFGFLERARRAGIGIPILPGIMPVTSYRQLRRFTEVCGASIPGPLLAKLERHQDDPKAVLEIGVEHAVRQVAELLEAGVEGVHFYTLNKSPATRMVLERLGLRPASGQP
notes: methylenetetrahydrofolate reductase of Thermus thermophilus HB8 with Glu18Gln, expressed from pET(tMR^Glu18Gln-H); Uncleavable hexa-histidine tag on the C-terminus; Crystallised as purified, with 0.6 mM CH3-H4folate that could not be assigned in the density; also called tMTHFR^Glu18Gln; MTHFR^Glu18Gln; not shown: His6, C-terminal, kept
binding result [3]: binds
